The numbers were not newly measured in paper PMC9709720, “An orally available small molecule that targets soluble TNF to deliver anti-TNF biologic-like efficacy in rheumatoid arthritis” (Frontiers in Pharmacology, 2022), which cites them from elsewhere.

For this data set, the system named is free soluble TNF in human synovial tissue. The arrangement: method as in Tani et al. (2013). The following applies: one third of reported steady state concentration, synovial fluid; ref Tani et al. (2013).

On to infliximab, for which the “Css^f used in model” value was 17 nM.

On to etanercept, for which the “Css^f used in model” value is listed as 2.2 nM.
